# Measurements reported in patent US20250026829A1 (published 2025).
# Where no end group is shown, it is not given here.
# T1: PRAME peptide on HLA-A*24:02 (human)
# T1 peptide: PYLGQMINL
# T2: PRAME peptide on HLA-A*24:02 (human, not fully specified (residue 6))
# T2 peptide: PYLGQMINL
# B1: S1 (TCR)
# alpha TRAV24 CDR3: AFISWRSSGDKLT
# beta TRBV25 CDR3: ASSSPLSGPLASPLH
# B2: S10 (TCR)
# alpha TRAV27 CDR3: GAIWSTLGRLY
# beta TRBV5-6 CDR3: SSFKGVNQPQH
# B3: S4 (TCR)
# alpha TRAV12-2 CDR3: AVNGPNNAGNMLT
# beta TRBV6-2/3 CDR3: ASSPGGFGQPQH
# B4: S5 (TCR)
# alpha TRAV12-2 CDR3: AVNKGFQKLV
# beta TRBV6-1 CDR3: ASSEGWGGQPQH
# B5: S6 (TCR)
# alpha TRAV21 CDR3: AVPNPSARQLT
# beta TRBV7-9 CDR3: ASSLEGQGVEQF
# Columns and labels:
# [1] = target: … (SEQ ID NO: 1) HLA-A*24 complex, reduced form of the peptide (human); assay: SPR, soluble TCR over immobilised biotinylated pHLA, equilibrium, 25 C
# [2] = target: T1, PRAME peptide on HLA-A*24:02; assay: SPR, equilibrium, 25 C; reduced peptide; soluble, with an engineered disulfide between the constant domains
# [3] = target: … (SEQ ID NO: 1) HLA-A*24 complex, oxidised form of the peptide (human); assay: SPR, soluble TCR over immobilised biotinylated pHLA, equilibrium, 25 C
# [4] = target: T2, PRAME peptide on HLA-A*24:02; assay: SPR, equilibrium, 25 C; oxidised peptide; soluble, with an engineered disulfide between the constant domains
binder,measurement,setting,value
B1,Kd,[1],85 µM
same,Kd,[2],85 µM
B2,Kd,[3],193 µM
same,Kd,[1],53 µM
same,Kd,[2],53 µM
same,Kd,[4],193 µM
B3,Kd,[1],18.9 µM
same,Kd,[2],18.9 µM
B4,Kd,[1],14.5 µM
same,Kd,[2],14.5 µM
B5,Kd,[3],241 µM
same,Kd,[1],126 µM
same,Kd,[2],126 µM
same,Kd,[4],241 µM
